Source: article PMC6614809, “The ATP-dependent chromatin remodelling enzyme Uls1 prevents Topoisomerase II poisoning” (Nucleic Acids Research, 2019)

Molecular target: T1, Full length Top2 (HFP185), purified (budding yeast (S. cerevisiae), UniProt P06786 1-1428)
T1 construct: Topoisomerase II (Top2), yeast, full length; Called a homodimer in the methods; also called Topoisomerase II; yeast Top2
T1 sequence (looked up): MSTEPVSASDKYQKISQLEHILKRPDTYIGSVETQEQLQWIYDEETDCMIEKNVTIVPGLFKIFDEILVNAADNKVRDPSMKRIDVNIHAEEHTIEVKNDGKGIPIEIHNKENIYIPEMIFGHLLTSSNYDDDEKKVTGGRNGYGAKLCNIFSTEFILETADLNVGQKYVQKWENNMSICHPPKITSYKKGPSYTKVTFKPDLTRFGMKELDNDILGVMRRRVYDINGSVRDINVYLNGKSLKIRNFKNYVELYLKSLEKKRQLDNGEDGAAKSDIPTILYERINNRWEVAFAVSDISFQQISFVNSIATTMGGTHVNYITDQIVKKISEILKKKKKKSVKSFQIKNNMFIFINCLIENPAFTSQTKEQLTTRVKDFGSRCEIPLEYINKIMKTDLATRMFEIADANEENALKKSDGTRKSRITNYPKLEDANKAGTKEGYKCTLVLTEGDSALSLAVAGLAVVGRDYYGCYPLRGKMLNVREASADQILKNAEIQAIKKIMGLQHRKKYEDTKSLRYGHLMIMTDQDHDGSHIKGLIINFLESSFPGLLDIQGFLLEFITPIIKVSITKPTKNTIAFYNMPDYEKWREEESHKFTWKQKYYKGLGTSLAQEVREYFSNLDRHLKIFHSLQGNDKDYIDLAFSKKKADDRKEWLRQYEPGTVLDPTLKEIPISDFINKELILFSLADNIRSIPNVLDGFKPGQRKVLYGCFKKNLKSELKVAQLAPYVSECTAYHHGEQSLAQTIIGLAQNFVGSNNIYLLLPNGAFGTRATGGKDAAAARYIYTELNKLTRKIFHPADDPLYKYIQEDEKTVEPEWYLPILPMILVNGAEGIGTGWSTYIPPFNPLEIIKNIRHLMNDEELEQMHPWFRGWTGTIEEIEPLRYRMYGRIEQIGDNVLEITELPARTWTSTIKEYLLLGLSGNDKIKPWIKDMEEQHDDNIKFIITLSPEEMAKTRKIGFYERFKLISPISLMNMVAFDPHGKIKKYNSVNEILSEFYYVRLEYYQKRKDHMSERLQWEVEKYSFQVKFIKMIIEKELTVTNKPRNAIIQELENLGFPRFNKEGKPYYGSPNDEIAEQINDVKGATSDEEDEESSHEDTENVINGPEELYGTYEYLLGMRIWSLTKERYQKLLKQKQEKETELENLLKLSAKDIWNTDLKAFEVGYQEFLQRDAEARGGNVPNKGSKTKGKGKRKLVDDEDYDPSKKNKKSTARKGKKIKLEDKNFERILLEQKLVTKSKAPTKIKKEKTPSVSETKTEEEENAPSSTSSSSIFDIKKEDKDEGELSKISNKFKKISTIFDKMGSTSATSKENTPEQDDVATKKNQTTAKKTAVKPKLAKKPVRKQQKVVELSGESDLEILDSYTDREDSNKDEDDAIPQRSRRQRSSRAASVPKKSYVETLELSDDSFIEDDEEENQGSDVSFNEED
Test: pull-down; about 0.1 mg Uls1 fragment (bait) pre-bound to Strep-Tactin superflow beads; 200 ul Top2 (prey, 0.1 mg/ml) added, 1 h at 4 C; Pulldown buffer 25 mM HEPES pH 7.5, 150 mM KCl, 3 mM MgCl2, 5% glycerol, 1 mM DTT, 0.1% NP-40; three washes
Conditions: both partners purified

binding result: binds
B1: Uls1 fragment 350-655, purified bait (domain or fragment, budding yeast (S. cerevisiae), UniProt Q08562 350-655, looked up)
chain: PSKNMDHTTHNSHDSEQKNSSIIILSDEDESGAGINDIESPLKVSEPNTADALRSSVPEVISLLDLPNIDLNNSVIKEASGSNSIPTSETDAQSSSSSVLQGTIMTEQATQSSQHECNSSLDTLKKNHQKLLKDLNSRESELRNALSCCKTNSEILRRKLSRREKEVSDAEKHWQLLLTSMARGGRTISSTQQILVDEAENQLNKLKEKRQLTKSKLDSINLKMYNYNEQWKSFVHSKNINLQKSLAALERSARDSKASATVNKRNECLAEKEKLDQMLKEGTLSFSTYKQLTGEIQQKLNDLKLG
notes: Tags are inferred from the resins used; also called bait protein; source: E. coli BL21(DE3)RIL, purified (TALON resin)
